Experimental data: US11994512B2, “Single-cell genomic methods to generate ex vivo cell systems that recapitulate in vivo biology with improved fidelity” (Massachusetts Institute of Technology, priority 2018, dated 2024)

B1: Q8BW75 (protein, UniProt Q8BW75 1-520, looked up)
chain: MSNKSDVIVVGGGISGMAAAKLLHDCGLSVVVLEARDRVGGRTYTIRNKNVKYVDLGGSYVGPTQNRILRLAKELGLETYKVNEVERLIHFVKGKSYAFRGPFPPVWNPITYLDNNNLWRTMDEMGQEIPSDAPWKAPLAEEWDYMTMKELLDKICWTKSTKQIATLFVNLCVTAETHEVSALWFLWYVKQCGGTTRIISTTNGGQERKFIGGSGQVSERIKDILGDRVKLERPVIHIDQTGENVIVKTLNHEIYEAKYVISAIPPALGMKIHYSPPLPMLRNQLISRVPLGSVIKCMVYYKEPFWRKKDFCGTMVIEGEEAPIAYTLDDTKPDGTYAAIMGFILAHKARKLVRLTKEERLRKLCELYAKVLNSQEALQPVHYEEKNWCEEQYSGGCYTTYFPPGILTQYGRVLRQPVGKIFFAGTETASHWSGYMEGAVEAGERAAREILHAIGKIPEDEIWQPEPESLDVPARPITSTFLERHLPSVPGLLKLFGLTTILSATALGFLAHKRGLFVHF
modifications: full-length
B2: Q8C159 (protein, UniProt Q8C159 1-568, looked up)
chain: MTEAEVGAEDLDTLLDELDYLPGHFHLEMQLNFEPRSPAQLRARDLKLQREGLRQELELVATPQLPAVRHLLGTFSFYLEELGDAREHFLEVARKDPGNLNAWANLAHVYGQLGQEEEEEASAGRLASLMGLEGDPEDAGDPRLRAARCLAEQGYAHGFDVGCASPEERAQVLEAGIALYDKALGYGQQIPIEEKRSWYFTMATLFIRLDGIFLEMGSEEQKRLPAFNRTLALLGEVLKSSDSRHQALAWCYVGMLLERKDTFSTTPMGVHEYGYSGTEPLDCFGKAIEIAKNQPPILNRLAKIFHFLGKQDMAVGTCNMVLAVLTDPELNWQAYCTRAKVRIRAYVHDLERAKVGLGGLPDRNHLACAKADLEEVVKVCPSLRTYLDISQVYYYMGVDAMRELLAVDEAALNQALVFLAKAGELELGDTLPELQLLRGKCLRVQGEDANAAACFKRAVELDDEGSSHTEGFGCLLEALLAQWSQAQLSDGEVGYEVDVWLRHAQGKYPAARLRQELQRVWRGHTEEVLGLARALVAQGRPALVRLLFETMEHEGEDAGGSGKSRVSS
modifications: full-length
B3: Q8C196 (protein, UniProt Q8C196 1-1500, looked up)
chain: MTRILTACKVVKTLKSGFGFANVTTKRQWDFSRPGIRLLSVKAKTAHIVLEDGTKMKGYSFGHPSSVAGEVVFNTGLGGYPEALTDPAYKGQILTMANPIIGNGGAPDTTARDELGLNKYMESDGIKVAGLLVLNYSNDYNHWLATKSLGQWLQEEKVPAIYGVDTRMLTKIIRDKGTMLGKIEFEGQSVDFVDPNKQNLIAEVSTKDVKVFGKGNPTKVVAVDCGIKNNVIRLLVKRGAEVHLVPWNHDFTQMEYDGLLIAGGPGNPALAQPLIQNVKKILESDRKEPLFGISTGNIITGLAAGAKSYKMSMANRGQNQPVLNITNRQAFITAQNHGYALDNTLPAGWKPLFVNVNDQTNEGIMHESKPFFAVQFHPEVSPGPTDTEYLFDSFFSLIKKGKGTTITSVLPKPALVASRVEVSKVLILGSGGLSIGQAGEFDYSGSQAVKAMKEENVKTVLMNPNIASVQTNEVGLKQADAVYFLPITPQFVTEVIKAERPDGLILGMGGQTALNCGVELFKRGVLKEYGVKVLGTSVESIMATEDRQLFSDKLNEINEKIAPSFAVESMEDALKAADTIGYPVMIRSAYALGGLGSGICPNKETLIDLGTKAFAMTNQILVERSVTGWKEIEYEVVRDADDNCVTVCNMENVDAMGVHTGDSVVVAPAQTLSNAEFQMLRRTSVNVVRHLGIVGECNIQFALHPTSMEYCIIEVNARLSRSSALASKATGYPLAFIAAKIALGIPLPEIKNVVSGKTSACFEPSLDYMVTKIPRWDLDRFHGTSSRIGSSMKSVGEVMAIGRTFEESFQKALRMCHPSVDGFTPRLPMNKEWPANLDLKKELSEPSSTRIYAIAKALENNMSLDEIVRLTSIDKWFLYKMRDILNMDKTLKGLNSDSVTEETLRKAKEIGFSDKQISKCLGLTEAQTRELRLKKNIHPWVKQIDTLAAEYPSVTNYLYVTYNGQEHDIKFDEHGIMVLGCGPYHIGSSVEFDWCAVSSIRTLRQLGKKTVVVNCNPETVSTDFDECDKLYFEELSLERILDIYHQEACNGCIISVGGQIPNNLAVPLYKNGVKIMGTSPLQIDRAEDRSIFSAVLDELKVAQAPWKAVNTLNEALEFANSVGYPCLLRPSYVLSGSAMNVVFSEDEMKRFLEEATRVSQEHPVVLTKFVEGAREVEMDAVGKEGRVISHAISEHVEDAGVHSGDATLMLPTQTISQGAIEKVKDATRKIAKAFAISGPFNVQFLVKGNDVLVIECNLRASRSFPFVSKTLGVDFIDVATKVMIGESIDEKRLPTLEQPIIPSDYVAIKAPMFSWPRLRDADPILRCEMASTGEVACFGEGIHTAFLKAMLSTGFKIPQKGILIGIQQSFRPRFLGVAEQLHNEGFKLFATEATSDWLNANNVPATPVAWPSQEGQNPSLSSIRKLIRDGSIDLVINLPNNNTKFVHDNYVIRRTAVDSGIALLTNFQVTKLFAEAVQKSRTVDSKSLFHYRQYSAGKAA
modifications: full-length
B4: Q8BZ20 (protein, UniProt Q8BZ20 1-711, looked up)
chain: MAQAAVAVAEVTQLLCAAGGALELAELRRRLRTSLGTDALERLLRDCGRFVVASRAVVAVGAGREAAAAASERLVLAVSSLRLCRAHQGPKPGCTGLCAQLHLCKFLIYGNCKFLKTGKNCRNGHNLKTDHNLSVLRTHGVDHLTYTELCQLLLQNDPSLLPDICLHYNKGDGPFGSCSFQKQCIKLHICQYFLQGECKFGTSCKRSHEFTNSESLEQLERLGLSSDLVSRLLSTYRNAYDIKNKGSALSKVSPSPAGPQGSSERKDSSGPVSPGTPSQEESEQICLYHIRKSCSFQEKCHRVHFHLPYRWQFLDGGKWKDLDNMELIEEAYSNPSKDRIVYTESAAGFHFDNLDFNSMKFGNTLARRLSTASSVTKPPHFILTTDWIWYWMDEFGSWQEYGRQGSGHPVTTISSSDVERAYLAFCAPGADAQAATLKFQAGKHNYELHFKAFLQKNLVYGTIRKVCRRPKYVSPQDVQMKQSCNTKLHGPKSIPDYWDPAALPDLGFKKITLSSSSEEYQKVWNIFNRTLPFYFVQKIERIQNMGLWEVYQWQKCQMQKQNGGKEVDERQLFHGTSANFVDAICQQNFDWRVCGLHGTSYGKGSYFARDAAYSHHYSKSDTHSHMMFLARVLVGDFVRGSTSFVRPPAKEGQSNAFYDSCVNSMSDPTIFVVFEKHQVYPEYLIQYSTSSKPPASPSIFVALGNLFTSRQ
modifications: full-length

Test system: intracellular proteome of ENR+CD and ENR organoids
Assay: LC-MS/MS TMT proteomics of ENR+CD versus ENR organoids
Assay type: cell-based, C57BL/6 mice
Settings: for Average logFC: ENR+CD versus ENR organoids, sample pairs in aggregate (n=4, 2 technical replicates from two biological donors); for M1-1 Log2 Median Normalized / M1-2 Log2 Median Normalized / M2-1 Log2 Median Normalized / M2-2 Log2 Median Normalized: protein abundance ratio ENR+CD versus ENR organoids, LC-MS/MS TMT proteomics; for M1-1 Log2 Median Normalized: sample pair M1-1; for M1-2 Log2 Median Normalized: sample pair M1-2; for M2-1 Log2 Median Normalized: sample pair M2-1; for M2-2 Log2 Median Normalized: sample pair M2-2; for change: up = enriched in ENR+CD, down = enriched in ENR, FDR<0.05 and log fold change cut-off

Molecule | Average logFC | M1-1 Log2 Median Normalized | M1-2 Log2 Median Normalized | M2-1 Log2 Median Normalized | M2-2 Log2 Median Normalized | change
B1 | −1.176 | −0.94 | −1.056 | −1.8625 | −1.177 | down
B2 | −1.177 | −0.633 | −1.446 | −1.1765 | −1.271 | down
B3 | −1.21 | −1.302 | −0.76 | −1.9525 | −0.825 | down
B4 | 1.138 | 1.138 | 0.69 | 1.1465 | 1.295 | up
